Experimental data from the Human Domainome abundance scans (Beltran et al. 2025).

B1: Friend leukemia integration 1 transcription factor, residues 116 to 197; numbered along this chain, Q01543 (parent)
chain: NMTTNERRVIVPADPTLWTQEHVRQWLEWAIKEYSLMEIDTSFFQNMDGKELCKMNKEDFLRATTLYNTEVLLSHLSYLRES

Variants of: B1
Experiment: abundance fitness (aPCA) (normalised: wild type 0, dead -1); higher = more abundant; growth selection in yeast, the domain comes from the species named
Details: Homo sapiens

Abundance fitness: each site, then its substitutions
M2: V -0.584, R 0.057, W -0.057, T -0.231
N5: E -0.039, R -0.042, G -0.042, T 0.056, C 0.019, S -0.152, P -0.017, Y -0.121, Q -0.228, K 0.004, F -0.089, D -0.011, H -0.06, M -0.127
V9: W 0, L -0.045, I -0.122, M -0.156, A 0.14, K 0.116, H 0.099, S 0.212, T 0.039, C 0.046, N 0.18, R 0.172, D -0.055, F -0.018, Y -0.605
T3: N -0.076, P -0.246, R -0.169, K 0.185, M 0.037, F 0.111, S 0.06, E -0.392, Q -0.136, C 0.009, I -0.078, V -0.201, L -0.076, G -0.098, Y -0.201, A 0.089, D -0.537, W -0.022, H -0.359
V11: E 0.015, I -0.019, Y 0.031, R 0.232, G 0.061, H -0.032, M 0.114, N 0.094, P 0.245, T 0.077, D -0.004, C 0.217, S 0.156, Q -0.024, K 0.148, F 0.166, A 0.118, W 0.198
E6: I -0.087, N -0.022, M -0.163, C -0.23, S -0.028, Q -0.174, F -0.435, A -0.185, G -0.179, H -0.377, P -0.126, Y -0.308, L 0.001, V -0.092, T -0.013
R7: P -0.045, I -0.247, S -0.156, M -0.089, F -0.179, V -0.05, Y -0.125, G -0.135, Q -0.092, W -0.179, L 0.155, K -0.292, C -0.06, E -0.044, H -0.284, A -0.243
T4: M -0.075, G -0.065, P -0.037, W -0.03, A 0.069, N 0.076, F -0.048, D 0.045, Q -0.085, K -0.005, I 0.017, H -0.115, V 0.003
I10: C -0.258, Q 0.03, G 0.163, H -0.033, P 0.26, A 0.15, D 0.207, Y -0.237, W -0.197, E 0.231, T 0.092, L -0.148, K 0.086, R 0.098, N 0.103, M -0.012, S 0.231, V 0.035, F -0.216
R8: W -0.452, C -0.301, V -0.297, A -0.172, I -0.406, S -0.215, M -0.108, Y -0.403, T -0.236, E 0.045, Q -0.097, F -0.174, D 0.015, G -0.52, H -0.039, P -0.026, L -0.369
P12: A -0.186, D 0.095, L -0.344, F -0.225, S 0.079, G -0.039, I -0.193, E 0.12, K -0.155, Y -0.227, M -0.095, N -0.021, R -0.053, H -0.085, C -0.178, V -0.447, T -0.021
